Data on one molecule can be found in US20230406933A1 (RANDOX LABORATORIES, published 2023).

Assay [1] has as its target T1, PDL1 coated in the commercial PD1:PDL1 inhibition assay (Acro Biosystems Cat# EP-101) (Homo sapiens (Human), UniProt Q9NZQ7 19-238).
T1 construct: Kit reagent; construct not described
As to the kind of experiment: Acro Biosystems PD1:PDL1 inhibition assay; PDL1 coated, biotinylated PD1 as competitor; reference Avelumab.

Assay [2] deals with PD-L1 on the cell surface in the Promega PD1/PD-L1 Blockade Bioassay (Cat# J1250). As to the kind of experiment: cell-based or functional assay.

B1: humanised 32.1A1 clone (VHH)
VHH: QVQLVESGGGLVQPGGSLRLSCAASGRTFREYGMGWFRQAPGKGLEWVATISSSGSYSYYADSVKGRFTISRDNSKNTLYLQMNSLRAEDTAVYYCAASSLLRGSSSRAESYDSWGQGTLVTVSS
notes: CDRs of 32.1A1 grafted into a model human VH3 framework; Expressed from pScreen, purified by IMAC, detected with anti-Myc HRP; also called hum-32.1A1; hum32.1A1
Regarding B1, in assay [1], the “amount of blocking relative to Avelumab” value was 10 fold. The “EC50 of luciferase activity fold change, Promega PD-1/PD-L1 blockade bioassay, panel GS542” value in assay [2] was determined as 0.165 µg/mL.
